In US20150004189A1 (published 2015):

Experiments:
[1] = biological target: HLA DQ molecule DQB1*0602 (human); assay: inhibition of radiolabeled peptide binding to purified HLA class II
[2] = biological target: HLA DQ molecule DQB1*0503 (human); assay: as above
[3] = biological target: T1, HLA DP molecule DPB1*0401 (human); assay: competition vs radiolabeled peptide, purified HLA-DP
T1 chain 1: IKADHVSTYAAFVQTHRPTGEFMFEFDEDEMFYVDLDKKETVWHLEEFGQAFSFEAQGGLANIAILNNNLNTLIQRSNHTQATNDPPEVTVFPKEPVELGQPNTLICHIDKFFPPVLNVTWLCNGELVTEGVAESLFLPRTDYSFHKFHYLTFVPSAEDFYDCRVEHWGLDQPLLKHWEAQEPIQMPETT
T1 chain 2: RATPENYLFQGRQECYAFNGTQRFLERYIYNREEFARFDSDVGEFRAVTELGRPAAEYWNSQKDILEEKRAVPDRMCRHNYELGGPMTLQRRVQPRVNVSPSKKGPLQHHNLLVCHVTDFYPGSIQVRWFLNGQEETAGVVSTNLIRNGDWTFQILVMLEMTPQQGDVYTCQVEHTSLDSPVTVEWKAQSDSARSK

[4] = biological target: HLA-DP molecule DPB1*2001 (human); assay: inhibition of radiolabeled peptide binding to purified HLA-DP
[5] = biological target: HLA-DP molecule DPB1*1401 (human); assay: as above
[6] = biological target: T2, HLA DP molecule DPB1*0201 (human); assay: competition vs radiolabeled peptide, purified HLA-DP
T2 chain 1: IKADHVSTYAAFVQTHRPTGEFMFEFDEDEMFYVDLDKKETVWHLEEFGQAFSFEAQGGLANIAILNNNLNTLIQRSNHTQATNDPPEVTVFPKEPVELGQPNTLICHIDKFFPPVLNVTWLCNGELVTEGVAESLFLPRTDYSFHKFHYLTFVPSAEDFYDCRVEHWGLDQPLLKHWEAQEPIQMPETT
T2 chain 2: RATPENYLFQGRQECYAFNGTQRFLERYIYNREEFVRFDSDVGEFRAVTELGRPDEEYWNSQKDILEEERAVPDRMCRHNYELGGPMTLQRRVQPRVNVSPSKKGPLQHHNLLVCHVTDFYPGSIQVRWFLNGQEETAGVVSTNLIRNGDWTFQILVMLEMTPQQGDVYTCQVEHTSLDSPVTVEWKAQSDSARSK

[7] = biological target: HLA-DQ molecule DQB1*0502 (human); assay: inhibition of radiolabeled peptide binding to purified HLA-DQ
[8] = biological target: HLA-DQ molecule DQB1*0202 (human); assay: as above
[9] = biological target: HLA-DQ molecule DQB1*0503 (human); assay: as above
HLA-DP DPB1*0401 = biological target: T3, HLA-DP DPB1*0401 (human); assay: inhibition of radiolabeled peptide binding to purified HLA-DP
T3 chain 1: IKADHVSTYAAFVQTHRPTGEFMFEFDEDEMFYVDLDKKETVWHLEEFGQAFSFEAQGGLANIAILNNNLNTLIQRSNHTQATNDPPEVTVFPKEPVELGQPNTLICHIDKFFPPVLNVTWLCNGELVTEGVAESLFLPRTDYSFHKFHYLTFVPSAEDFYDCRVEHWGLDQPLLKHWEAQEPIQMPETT
T3 chain 2: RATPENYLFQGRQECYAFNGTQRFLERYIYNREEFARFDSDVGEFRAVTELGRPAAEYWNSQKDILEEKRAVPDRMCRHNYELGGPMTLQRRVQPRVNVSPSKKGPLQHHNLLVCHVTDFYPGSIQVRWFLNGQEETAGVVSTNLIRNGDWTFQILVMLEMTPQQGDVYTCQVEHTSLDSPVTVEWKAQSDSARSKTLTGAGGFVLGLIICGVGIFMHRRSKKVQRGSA

[10] = biological target: HLA DQ molecule DQB1*0502 (human); assay: inhibition of radiolabeled peptide binding to purified HLA class II
[11] = biological target: HLA DQ molecule DQB1*0202 (human); assay: as above
[12] = biological target: HLA DQ molecule DQB1*0502 (human); assay: as above; remark: listed apart in the source
[13] = biological target: HLA DQ molecule DQB1*0503 (human); assay: as above; remark: listed apart in the source
[14] = biological target: HLA DQ molecule DQB1*0202 (human); assay: as above; remark: listed apart in the source
[15] = biological target: HLA-DQ molecule DQB1*0602 (human); assay: inhibition of radiolabeled peptide binding to purified HLA-DQ
[16] = biological target: T4, HLA-DP molecule DPB1*0401 (human); assay: inhibition of radiolabeled peptide binding to purified HLA-DP
T4 chain 1: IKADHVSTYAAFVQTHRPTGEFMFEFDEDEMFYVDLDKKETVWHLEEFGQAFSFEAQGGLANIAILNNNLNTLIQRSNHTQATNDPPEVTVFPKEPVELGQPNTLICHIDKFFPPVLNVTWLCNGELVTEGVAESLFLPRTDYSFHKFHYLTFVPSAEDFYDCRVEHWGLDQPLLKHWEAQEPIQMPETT
T4 chain 2: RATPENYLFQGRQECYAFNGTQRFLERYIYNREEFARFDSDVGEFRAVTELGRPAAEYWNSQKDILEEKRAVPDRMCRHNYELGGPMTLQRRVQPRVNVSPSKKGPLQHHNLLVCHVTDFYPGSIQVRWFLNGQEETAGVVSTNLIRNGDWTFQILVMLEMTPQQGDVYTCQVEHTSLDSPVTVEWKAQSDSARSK

[17] = biological target: HLA DQ molecule DQB1*0602 (human); assay: inhibition of radiolabeled peptide binding to purified HLA class II; remark: listed apart in the source

With MRNVFDDVVPADFKV [Lol p 2 peptide, position 76, MRNVFDDVVPADFKV (Peptide ID 3337.0030), listing 1 of 2 here] the IC50 [1] was 39500 nM and the IC50 [2] was 347 nM.

Binder NGNELLLDLSLTKVN [Fel d 1 2 peptide, position 36, NGNELLLDLSLTKVN (Peptide ID 3324.1055)] has an IC50 [3] of 590 nM.

Work on MRNVFDDVVPADFKV [Lol p 2 peptide, position 76, MRNVFDDVVPADFKV (Peptide ID 3337.0030), listing 2 of 2 here] yielded an IC50 [4] of 82 nM and an IC50 [5] of 24200 nM.

For AETCPIFYDVFFAVA [Fel d 1 2 peptide, position 21, AETCPIFYDVFFAVA (Peptide ID 3324.1056)], the IC50 [3] was 5.6 nM and the IC50 [6] was 8.1 nM.

Binder ASEVFKAVEAYLVAH [Que a 1 (141-155) peptide ASEVFKAVEAYLVAH] has an IC50 [7] of 5310 nM, an IC50 [8] of 953 nM and an IC50 [9] of 2040 nM.

ASVIPPARLFKAFVL [Que a 1 peptide 11-25 ASVIPPARLFKAFVL (Peptide ID 3324.1587)] was tested, and the IC50 (HLA-DP DPB1*0401) was 917 nM.

Binder IKSDKPLKGPFNFRF [Lol p 2 peptide 56-70 IKSDKPLKGPFNFRF (Peptide ID 3324.1140)] has an IC50 (HLA-DP DPB1*0401) of 12300 nM.

For RYANPIAFFRKEPLK [Lol p 11 peptide, position 111, RYANPIAFFRKEPLK (Peptide ID 3324.1138)], the IC50 [10] was 793 nM, the IC50 [1] was 9740 nM and the IC50 [2] was 1600 nM. For the same binder, the IC50 [11] was 26000 nM.

NGNELLLDLSLTKVN [Fel d 1 2 (36-50) peptide NGNELLLDLSLTKVN, Peptide ID 3324.1055] was tested, and the IC50 [12] was 2860 nM, the IC50 [13] was 9370 nM and the IC50 [14] was 8020 nM.

In the case of GAYETYKFIPSLEAA [Pha a 5 peptide, position 201, GAYETYKFIPSLEAA (Peptide ID 3324.1433)], the IC50 [1] is reported as 846 nM and the IC50 [2] is reported as 358 nM.

EDTNIYNSNEAFKVE [Cup a 1 (316-330) peptide EDTNIYNSNEAFKVE] was tested, and the IC50 [15] was 8290 nM, the IC50 [7] was 2420 nM and the IC50 [8] was 7540 nM.

With NMNIKLKMPLYVAGH [Cup s 1 (96-110) peptide NMNIKLKMPLYVAGH] the IC50 [15] was 14500 nM, the IC50 [7] was 20800 nM and the IC50 [8] was 50000 nM. It also gave an IC50 [9] of 11700 nM.

Work on DINVGFKAAVAAAAG [Poa p 5 peptide, position 56, DINVGFKAAVAAAAG (Peptide ID 3324.1571)] yielded an IC50 [4] of 295 nM and an IC50 [16] of 20700 nM.

NALSVLDKIYTSPLC [Fel d 1 1 (78-92) peptide NALSVLDKIYTSPLC, Peptide ID 3324.1050] was tested, and the IC50 [13] was 5840 nM and the IC50 [17] was 1000 nM.

In the case of NALSVLDKIYTSPLC [Fel d 1 1 peptide, position 78, NALSVLDKIYTSPLC (Peptide ID 3324.1050)], the IC50 [3] is reported as 349 nM and the IC50 [6] is reported as 575 nM.

Work on EKALWIIFSQNMNIK [Cup s 1 (86-100) peptide EKALWIIFSQNMNIK] yielded an IC50 [7] of 13000 nM, an IC50 [8] of 5560 nM and an IC50 [9] of 1930 nM.

Work on KALWIIFSQNMNIKL [Cup a 1 peptide 66-80 KALWIIFSQNMNIKL (Peptide ID 3324.0604)] yielded an IC50 (HLA-DP DPB1*0401) of 1730 nM.

Binder FKAAVAAAAGAPPAD [Poa p 5 peptide, position 61, FKAAVAAAAGAPPAD (Peptide ID 3324.1575)] has an IC50 [4] of 2940 nM and an IC50 [16] of 28900 nM.

Binder SDAKTLVLNIKYTRP [Lol p 3 peptide, position 11, SDAKTLVLNIKYTRP (Peptide ID 3324.1142)] has an IC50 [10] of 50000 nM, an IC50 [2] of 33900 nM and an IC50 [11] of 25700 nM.

LWEVKSAKPLTGPMN [Lol p 3 peptide, position 51, LWEVKSAKPLTGPMN (Peptide ID 3337.0031)] gave an IC50 [4] of 671 nM and an IC50 [5] of 18600 nM.

With DIYNYMEPYVSKVDP [Dac g 4 peptide 1-15 DIYNYMEPYVSKVDP (Peptide ID 3324.0663)] the IC50 (HLA-DP DPB1*0401) was 23400 nM.

In the case of LIEKINAGFKAAVAA [Lol p 5 1 peptide, position 71, LIEKINAGFKAAVAA (Peptide ID 3324.1175)], the IC50 [5] is reported as 2420 nM.

Work on DEYVEQVAQYKALPV [Fel d 1 1 (41-55) peptide DEYVEQVAQYKALPV, Peptide ID 3324.1049] yielded an IC50 [12] of 337 nM and an IC50 [17] of 140 nM.
